Results on 94 variants are retold here after the supplement of paper PMC10567573.

First the molecules themselves.
B1: FAM116A (parent)
chain: TVHEVDIFRCFCPVFLHSQMLWEL
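Further: lentivirally expressed fusions sorted by FACS into six bins by GFP to DsRed ratio, PSI derived from sequencing read proportions per bin multiplied by bin number.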

The data set covers variants of B1. The experiment in a line: protein stability index of a GFP-peptide fusion (GPS, HEK-293T) (PSI 1-6); higher = more stable. The conditions noted are these: c terminus: a fixed tail appended.
For TVHEVDIFRCFCPVFRHSQMLWEL, the protein stability index is 3.17.

As to TVHEVDIFRCFCPVFCHSQMLWEL, the protein stability index was 3.78.

TVHEVDIFRCFCPVFPHSQMLWEL: the protein stability index is 2.89.

As for TVHEVDIFRCFCPVFEHSQMLWEL, the protein stability index was 1.69.

With TVHEVDIFRCFCPVFGHSQMLWEL, the protein stability index was found to be 2.97.

TVHEVDIFRCFCPVFNHSQMLWEL: the protein stability index turned out to be 3.13.

Consider TVHEVDIFRCFCPVFLHLQMLWEL, for which the protein stability index was found to be 2.89.

TVHEVDIFRCFCPVFLHFQMLWEL: the protein stability index was 2.77.

Turning to TVHEVDIFRCFCPVFLHEQMLWEL, the protein stability index turned out to be 1.56.

Regarding TVHEVDIFRCFCPVFLHGQMLWEL, the protein stability index came to 2.83.

As to TVHEVDIFRCFCPVFLHQQMLWEL, the protein stability index was 2.17.

As for TVHEVDIFRCFCPVFLHNQMLWEL, the protein stability index is 2.99.

TVHEVDIFRCFCPVFLHWQMLWEL: the protein stability index was 2.85.

As to TVHEVDIFRCFCPVFLHYQMLWEL, the protein stability index was 4.23.

Take TVHEVDIFRCFCPVFLHDQMLWEL: the protein stability index came out at 2.15.

Turning to TVHEVDIFRCFCPVFLHTQMLWEL, the protein stability index was found to be 3.1.

For TVHEVDIFRCFCPVFLHSQMLWEG, the protein stability index amounted to 3.33.

On to TVHEVDIFRCFCPVFLHSQMLWEY, for which the protein stability index was 3.09.

With TVHEVDIFRCFCPVFLHSQMLWEP, the protein stability index came out at 1.69.

TVHEVDIFRCFCPVFLHSQMLWEQ: the protein stability index came to 1.47.

On to TVHEVDIFRCFCPVFLHSQMLWEC, for which the protein stability index was found to be 4.01.

Consider TVHEVDIFRCFCPVFLHSQMLWEW, for which the protein stability index is 1.83.

Regarding TVHEVDIFRCFCPVFLHSQMLWES, the protein stability index worked out at 2.18.

Turning to TVHEVDIFRCFIPVFLHSQMLWEL, the protein stability index came to 2.54.

For TVHEVDIFRCFMPVFLHSQMLWEL, the protein stability index worked out at 2.97.

Regarding TVHEVDIFRCFKPVFLHSQMLWEL, the protein stability index is 1.79.

Regarding TVHEVDIFRCFEPVFLHSQMLWEL, the protein stability index came to 1.52.

TVHEVDIFRCFFPVFLHSQMLWEL: the protein stability index was 2.77.

As for TVHEVDIFRCFRPVFLHSQMLWEL, the protein stability index was found to be 3.5.

TVHEVDIFRCFCPGFLHSQMLWEL: the protein stability index amounted to 3.26.

For TVHEVDIFRCFCPLFLHSQMLWEL, the protein stability index was determined as 4.01.

For the variant TVHEVDIFRCFCPYFLHSQMLWEL, the protein stability index came out at 1.89.

As to TVHEVDIFRCFCPFFLHSQMLWEL, the protein stability index came to 2.97.

Take TVHEVDIFRCFCPQFLHSQMLWEL: the protein stability index was 3.31.

For TVHEVDIFRCFCPRFLHSQMLWEL, the protein stability index is 2.5.

Regarding TVHEVDIFRCFCPAFLHSQMLWEL, the protein stability index was determined as 2.13.

As for TVHEVDIFRCFCPKFLHSQMLWEL, the protein stability index was found to be 2.41.

TVHEVDIFRCFCPVILHSQMLWEL: the protein stability index amounted to 3.86.

TVHEVDIFRCFCPVYLHSQMLWEL: the protein stability index amounted to 3.31.

On to TVHEVDIFRCFCPVDLHSQMLWEL, for which the protein stability index worked out at 1.44.

Turning to TVHEVDIFRCFCPVRLHSQMLWEL, the protein stability index was 4.41.

With TVHEVDIFRCFCPVVLHSQMLWEL, the protein stability index amounted to 1.94.

Consider TVHEVDIFRCFCPVCLHSQMLWEL, for which the protein stability index was found to be 1.76.

Regarding TVHEVDIFRCFCPVKLHSQMLWEL, the protein stability index stood at 2.7.

For the variant TVHEVDIFRCFCPVHLHSQMLWEL, the protein stability index turned out to be 2.83.

With TVHEVDIFRCFCPVFLHSQMLWWL, the protein stability index came to 2.4.

For the variant TVHEVDIFRCFCPVFLHSQMLWKL, the protein stability index amounted to 3.53.

For the variant TVHEVDIFRCFCPVFLHSQMLWRL, the protein stability index was 1.77.

As to TVHEVDIFRCFCPVFLHSQMLWLL, the protein stability index worked out at 3.65.

For the variant TVHEVDIFRCFCPVFLHSQMLWSL, the protein stability index is 2.37.

For the variant TVHEVDIFRCFCPVFLHSQMLWHL, the protein stability index was 3.28.

On to TVHEVDIFRCFCPVFLHSQMLWYL, for which the protein stability index turned out to be 2.38.

TVHEVDIFRCFCPVFLHSQMLWNL: the protein stability index was 3.34.

As to TVHEVDIFRCFCPVFLHSQMLWIL, the protein stability index was found to be 3.36.

For TVHEVDIFRCFCPVFLRSQMLWEL, the protein stability index came to 2.65.

With TVHEVDIFRCFCPVFLMSQMLWEL, the protein stability index worked out at 3.23.

TVHEVDIFRCFCPVFLSSQMLWEL: the protein stability index turned out to be 3.21.

For the variant TVHEVDIFRCFCPVFLPSQMLWEL, the protein stability index was determined as 2.86.

Regarding TVHEVDIFRCFCPVFLHSQMLFEL, the protein stability index was determined as 2.22.

Regarding TVHEVDIFRCFCPVFLHSQMLKEL, the protein stability index was 1.13.

For the variant TVHEVDIFRCFCPVFLHSQMLHEL, the protein stability index was 1.52.

Regarding TVHEVDIFRCFCPVFLHSQMLMEL, the protein stability index was found to be 3.69.

For the variant TVHEVDIFRCFCPVFLHSQMLREL, the protein stability index was 3.65.

With TVHEVDIFRCFCPVFLHSQMLTEL, the protein stability index was 2.11.

Turning to TVHEVDIFRCFCPVFLHSQMLGEL, the protein stability index came out at 3.08.

On to TVHEVDIFRHFCPVFLHSQMLWEL, for which the protein stability index stood at 4.15.

On to TVHEVDIFRMFCPVFLHSQMLWEL, for which the protein stability index is 3.4.

Consider TVHEVDIFRRFCPVFLHSQMLWEL, for which the protein stability index stood at 2.

For TVHEVDIFRKFCPVFLHSQMLWEL, the protein stability index came out at 2.63.

With TVHEVDIFRTFCPVFLHSQMLWEL, the protein stability index was 1.93.

For TVHEVDIFRVFCPVFLHSQMLWEL, the protein stability index turned out to be 2.69.

On to TVHEVDIFRSFCPVFLHSQMLWEL, for which the protein stability index is 2.89.

Regarding TVHEVDIFRPFCPVFLHSQMLWEL, the protein stability index turned out to be 4.46.

With TVHEVDIFRCQCPVFLHSQMLWEL, the protein stability index is 1.64.

As for TVHEVDIFRCGCPVFLHSQMLWEL, the protein stability index is 2.22.

Turning to TVHEVDIFRCKCPVFLHSQMLWEL, the protein stability index turned out to be 2.82.

Consider TVHEVDIFRCNCPVFLHSQMLWEL, for which the protein stability index turned out to be 2.04.

As for TVHEVDIFRCCCPVFLHSQMLWEL, the protein stability index was found to be 2.65.

As to TVHEVDIFRCRCPVFLHSQMLWEL, the protein stability index came to 1.38.

In the case of TVHEVDIFRCHCPVFLHSQMLWEL, the protein stability index was 2.82.

In the case of TVHEVDIFRCFCPVFLHSQKLWEL, the protein stability index came to 1.68.

As for TVHEVDIFRCFCPVFLHSQPLWEL, the protein stability index stood at 1.4.

TVHEVDIFRCFCPVFLHSQVLWEL: the protein stability index turned out to be 2.62.

For the variant TVHEVDIFRCFCPVFLHSQILWEL, the protein stability index is 3.16.

With TVHEVDIFRCFCPVFLHSQLLWEL, the protein stability index amounted to 3.06.

Take TVHEVDIFRCFCPVFLHSQQLWEL: the protein stability index was determined as 2.97.

As to TVHEVDIFRCFCPVFLHSQYLWEL, the protein stability index came to 3.21.

On to TVHEVDIFRCFCPVFLHSQFLWEL, for which the protein stability index is 2.05.

In the case of TVHEVDIFRCFCPVFLHSQNLWEL, the protein stability index turned out to be 3.79.

On to TVHEVDIFRCFCPVFLHSCMLWEL, for which the protein stability index was 2.22.

TVHEVDIFRCFCPVFLHSAMLWEL: the protein stability index was determined as 3.23.

On to TVHEVDIFRCFCPVFLHSWMLWEL, for which the protein stability index was 2.73.

On to TVHEVDIFRCFCPVFLHSPMLWEL, for which the protein stability index is 4.4.

Turning to TVHEVDIFRCFCPVFLHSTMLWEL, the protein stability index was 1.66.
